# Measurements: publication PMC9628480, “Discovery and structural characterization of chicoric acid as a SARS-CoV-2 nucleocapsid protein ligand and RNA binding disruptor”
# B1: RNA1 (structured_RNA)
# RNA: CACUCACUGUCUUUUUUGAUGGUAGAGU
# Key:
# N protein NTD = N protein NTD (SARS-CoV-2, UniProt A0A6B9VLF5 43-174); assay: fluorescence polarization; settings: protein: recombinant; tags: SUMO tag (pET-SUMO) cleaved; label: 5'-FITC; hairpin
# N protein CTD = N protein CTD (SARS-CoV-2, UniProt A0A6B9VLF5 250-364); assay: fluorescence polarization; settings: protein: recombinant; tags: SUMO tag (pET-SUMO) cleaved; chain copies: 2; label: 5'-FITC; hairpin
binder,measurement,setting,value
B1,binding result,N protein NTD,no binding
same,binding result,N protein CTD,no binding
